From patent publication US20210032299A1 (Eli Lilly, published 2021)
Starred links: 1 amine or outer side, 2 acyl side, 3 side chain; linkers in the order of their positions; H or OH if unused. Non-standard residues stand in square brackets, D forms with d. Groups on a side chain read outwards from the residue. No end group written: not given here. *: point of attachment. C20 diacid = O=C(O)CCCCCCCCCCCCCCCCCCC(=O)*; γGlu = O=C(O)[C@H](CCC(=O)[*:2])N[*:1]; αMeF = C[C@](N)(Cc1ccccc1)C(=O)O; 4Pal = N[C@@H](Cc1ccncc1)C(=O)O; αMeL = CC(C)C[C@](C)(N)C(=O)O; AEEA = NCCOCCOCC(=O)O; Aib = CC(C)(N)C(=O)O

What was measured:
human glucagon receptor = biological target: T1, human glucagon receptor (human, UniProt P47871 26-477); assay: SPA, displacement of [125I]-Gcg from hGcgR membranes, 0.1% bacitracin
T1 construct: whole, on cells; Assayed as crude membranes of stably transfected HEK293 cells; also called hGcgR; GcgR
T1 sequence (P47871 26-477): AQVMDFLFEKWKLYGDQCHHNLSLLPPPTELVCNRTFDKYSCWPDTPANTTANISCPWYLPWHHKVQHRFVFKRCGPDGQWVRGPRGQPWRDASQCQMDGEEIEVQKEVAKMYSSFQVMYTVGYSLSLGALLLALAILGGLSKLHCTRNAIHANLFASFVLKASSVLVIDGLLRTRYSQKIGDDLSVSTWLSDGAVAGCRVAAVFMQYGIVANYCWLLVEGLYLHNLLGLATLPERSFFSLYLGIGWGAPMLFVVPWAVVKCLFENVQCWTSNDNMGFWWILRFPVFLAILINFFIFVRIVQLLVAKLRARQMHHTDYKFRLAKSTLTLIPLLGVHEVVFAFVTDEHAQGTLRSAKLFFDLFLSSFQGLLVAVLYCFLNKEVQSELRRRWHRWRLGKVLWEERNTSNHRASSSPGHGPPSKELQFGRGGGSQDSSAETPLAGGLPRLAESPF
In short: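 Binding buffer: 25 mM HEPES pH 7.4, 2.5 mM CaCl₂, 1 mM MgCl₂, 0.003% Tween-20, protease inhibitors without EDTA. Counted by scintillation after 12 h incubation/settling at room temperature. Four-parameter nonlinear fit; Kᵢ given as geometric mean ± SEM of independent replicates run on different days.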

[1] = biological target: T2, human glucose-dependent insulinotropic polypeptide (GIP) receptor (human, UniProt P48546 22-466); assay: SPA, displacement of [125I]-GIP from hGIPR membranes, 0.1% bacitracin
T2 construct: whole, on cells; Assayed as crude membranes of stably transfected CHO cells; also called hGIPR; human GIP receptor
T2 sequence (looked up): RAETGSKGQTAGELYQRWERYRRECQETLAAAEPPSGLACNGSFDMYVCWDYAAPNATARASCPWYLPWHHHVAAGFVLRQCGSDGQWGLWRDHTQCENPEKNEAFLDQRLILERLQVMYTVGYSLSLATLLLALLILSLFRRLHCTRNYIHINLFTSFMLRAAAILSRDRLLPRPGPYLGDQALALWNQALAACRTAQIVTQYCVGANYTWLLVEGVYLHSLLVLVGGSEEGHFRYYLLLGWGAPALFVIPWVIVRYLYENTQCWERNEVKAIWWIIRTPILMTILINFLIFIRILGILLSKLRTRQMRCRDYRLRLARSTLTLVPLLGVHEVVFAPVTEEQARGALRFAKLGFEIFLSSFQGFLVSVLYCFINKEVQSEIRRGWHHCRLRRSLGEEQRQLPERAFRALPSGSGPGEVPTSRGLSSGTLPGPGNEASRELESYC

human GLP-1 receptor = biological target: T3, human GLP-1 receptor (human, UniProt P43220 24-463); assay: SPA, displacement of [125I]-GLP-1 from hGLP-1R membranes, 0.1% bacitracin
T3 construct: whole, on cells; Assayed as crude membranes of stably transfected HEK293 cells; also called hGLP1R; hGLP-1R
In short: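 Binding buffer: 25 mM HEPES pH 7.4, 2.5 mM CaCl₂, 1 mM MgCl₂, 0.1% bacitracin, 0.003% Tween-20, protease inhibitors without EDTA. Four-parameter nonlinear regression; Kᵢ given as geometric mean ± SEM, n = independent replicates run on different days.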

B1: Example 50 (peptide)
peptide: Y[Aib]EGT[αMeF]ISDYSI[αMeL]LDKK([AEEA-AEEA-γGlu-C20 diacid])HQ[Aib]DFVE[4Pal]LLAGGPSSGAPPPS-NH2
modifications: N-terminus assumed
SMILES: CC[C@H](C)[C@H](NC(=O)[C@H](CO)NC(=O)[C@H](Cc1ccc(O)cc1)NC(=O)[C@H](CC(=O)O)NC(=O)[C@H](CO)NC(=O)[C@@H](NC(=O)[C@](C)(Cc1ccccc1)NC(=O)[C@@H](NC(=O)CNC(=O)[C@H](CCC(=O)O)NC(=O)C(C)(C)NC(=O)[C@@H](N)Cc1ccc(O)cc1)[C@@H](C)O)[C@@H](C)CC)C(=O)N[C@@](C)(CC(C)C)C(=O)N[C@@H](CC(C)C)C(=O)N[C@@H](CC(=O)O)C(=O)N[C@@H](CCCCN)C(=O)N[C@@H](CCCCNC(=O)COCCOCCNC(=O)COCCOCCNC(=O)CC[C@H](NC(=O)CCCCCCCCCCCCCCCCCCC(=O)O)C(=O)O)C(=O)N[C@@H](Cc1c[nH]cn1)C(=O)N[C@@H](CCC(N)=O)C(=O)NC(C)(C)C(=O)N[C@@H](CC(=O)O)C(=O)N[C@@H](Cc1ccccc1)C(=O)N[C@H](C(=O)N[C@@H](CCC(=O)O)C(=O)N[C@@H](Cc1ccncc1)C(=O)N[C@@H](CC(C)C)C(=O)N[C@@H](CC(C)C)C(=O)N[C@@H](C)C(=O)NCC(=O)NCC(=O)N1CCC[C@H]1C(=O)N[C@@H](CO)C(=O)N[C@@H](CO)C(=O)NCC(=O)N[C@@H](C)C(=O)N1CCC[C@H]1C(=O)N1CCC[C@H]1C(=O)N1CCC[C@H]1C(=O)N[C@@H](CO)C(N)=O)C(C)C
Human glucagon receptor
  Ki: 23.4 nM
[1]
  Ki: 0.0501 nM
Human GLP-1 receptor
  Ki: 34.9 nM

B2: Example 48 (peptide)
peptide: Y[Aib]EGTFISDYSI[αMeL]LDKK([AEEA-AEEA-γGlu-C20 diacid])HQ[Aib]DFVE[4Pal]LLAGGPSSGAPPPS-NH2
modifications: N-terminus assumed
SMILES: CC[C@H](C)[C@H](NC(=O)[C@H](Cc1ccccc1)NC(=O)[C@@H](NC(=O)CNC(=O)[C@H](CCC(=O)O)NC(=O)C(C)(C)NC(=O)[C@@H](N)Cc1ccc(O)cc1)[C@@H](C)O)C(=O)N[C@@H](CO)C(=O)N[C@@H](CC(=O)O)C(=O)N[C@@H](Cc1ccc(O)cc1)C(=O)N[C@@H](CO)C(=O)N[C@H](C(=O)N[C@@](C)(CC(C)C)C(=O)N[C@@H](CC(C)C)C(=O)N[C@@H](CC(=O)O)C(=O)N[C@@H](CCCCN)C(=O)N[C@@H](CCCCNC(=O)COCCOCCNC(=O)COCCOCCNC(=O)CC[C@H](NC(=O)CCCCCCCCCCCCCCCCCCC(=O)O)C(=O)O)C(=O)N[C@@H](Cc1c[nH]cn1)C(=O)N[C@@H](CCC(N)=O)C(=O)NC(C)(C)C(=O)N[C@@H](CC(=O)O)C(=O)N[C@@H](Cc1ccccc1)C(=O)N[C@H](C(=O)N[C@@H](CCC(=O)O)C(=O)N[C@@H](Cc1ccncc1)C(=O)N[C@@H](CC(C)C)C(=O)N[C@@H](CC(C)C)C(=O)N[C@@H](C)C(=O)NCC(=O)NCC(=O)N1CCC[C@H]1C(=O)N[C@@H](CO)C(=O)N[C@@H](CO)C(=O)NCC(=O)N[C@@H](C)C(=O)N1CCC[C@H]1C(=O)N1CCC[C@H]1C(=O)N1CCC[C@H]1C(=O)N[C@@H](CO)C(N)=O)C(C)C)[C@@H](C)CC
Human glucagon receptor
  Ki: 267 nM
[1]
  Ki: 0.0498 nM
Human GLP-1 receptor
  Ki: 211 nM
